One molecule from US10370436B2, “Anti-pseudomonas Psl binding molecules and uses thereof” (priority 2011, dated 2019) can be followed below.

For experiment [1], the system named is luminescent P. aeruginosa serogroup 05 strain (PAO1.lux). Kind of experiment: Opsonophagocytosis killing (OPK) assay, PAO1.lux. Format: cell-based, Pseudomonas aeruginosa. As to conditions: human IgG1 antibodies, differentiated HL-60 cells, baby rabbit serum, FIG. 2A. On the procedure:
(§1) This example describes the evaluation of prioritized human IgG1 antibodies to promote OPK of P. aeruginosa. […] OPK assays were performed as described in (DiGiandomenico, A., et al., Infect Immun 72, 7012-7021 (2004)), with modifications. Briefly, assays were performed in 96-well plates using 0.025 ml of each OPK component; P. aeruginosa strains; diluted baby rabbit serum; differentiated HL-60 cells; and monoclonal antibody. In some OPK assays, luminescent P. aeruginosa strains, which were constructed as described (Choi, K. H., et al., Nat Methods 2, 443-448 (2005)), were used. Luminescent OPK assays were performed as described above but with determination of relative luciferase units (RLUs) using a Perkin Elmer ENVISION Multilabel plate reader (Perkin Elmer).
This example describes two series of experiments evaluating the ability of PMB-mAb conjugates to promote OPK of P. aeruginosa. In the first experiments (FIGS. 15A-B), conjugate-mediated OPK activity by human HL-60 neutrophil cell line in the presence of rabbit complement was evaluated using P. aeruginosa strains expressing bacterial luciferase as described in Example 2. R347 was used as a negative control in these experiments. […] In the second series of experiments, reduction in luminescence following 2 h incubation relative to control lacking mAb was used to determine % killing.

Experiment [2] relates to P. aeruginosa strain 9882-80 (O11). Kind of experiment: OPK assay, strain 9882-80.lux. The experiment is classed as cell-based, Pseudomonas aeruginosa. As to conditions: strain 9882-80.lux (O11); FIG. 2B. The protocol: as §1
The ability of the WapR-004 and Cam-003 antibodies to mediate OPK activity against another clinically relevant O-antigen serotype strain, 9882-80.lux, was evaluated.

Experiment [3] has as its system P. aeruginosa PAO1.lux association with A549 cells. Kind of experiment: Cell attachment assay, PAO1.lux to A549 cells. The experiment is classed as cell-based, Pseudomonas aeruginosa. As to conditions: MOI of 10, FIG. 4, FIG. 9B. On the procedure:
Anti-Psl antibodies were added to a confluent monolayer of A549 cells (an adenocarcinoma human alveolar basal epithelial cell line) grown in opaque 96-well plates (Nunc Nunclon Delta). Log-phase luminescent P. aeruginosa PAO1 strain (PAO1.lux) was added at an MOI of 10. After incubation of PAO1.lux with A549 cells at 37° C. for 1 hour, the A549 cells were washed, followed by addition of LB+0.5% glucose. Bacteria were quantified following a brief incubation at 37° C. as performed in the OPK assay described in Example 2. Measurements from wells without A549 cells were used to correct for non-specific binding.

The test system of experiment [4] is P. aeruginosa strains PAO1, 33356, 6294, 6077, 6206. Nature of the experiment: Acute pneumonia model, organ burden. The experiment is classed as in vivo, BALB/c mice. As to conditions: 6294 (O6) and 6206 (O11); FIGS. 7E, 7F. On the procedure:
Antibodies or PBS were administered 24 hours before infection in each model. P. aeruginosa acute pneumonia, keratitis, and thermal injury infection models were performed as described (DiGiandomenico, A., et al., Proc Natl Acad Sci USA 104, 4624-4629 (2007)), with modifications. In the acute pneumonia model, BALB/c mice (The Jackson Laboratory) were infected with P. aeruginosa strains suspended in a 0.05 ml inoculum. In the thermal injury model, CF-1 mice (Charles River) received a 10% total body surface area burn with a metal brand heated to 92° C. for 10 seconds. Animals were infected subcutaneously with P. aeruginosa strain 6077 at the indicated dose. For organ burden experiments, acute pneumonia was induced in mice followed by harvesting of lungs, spleens, and kidneys 24 hours post-infection for determination of CFU.

B1: WapR-004: anti-Psl antibody, VH SEQ ID NO: 11 and VL SEQ ID NO: 12 (antibody, V domains shown)
VH: EVQLLESGPGLVKPSETLSLTCNVAGGSISPYYWTWIRQPPGKGLELIGYIHSSGYTDYNPSLKSRVTISGDTSKKQFSLHVSSVTAADTAVYFCARGDWDLLHALDIWGQGTLVTVSS
VL: EIVLTQSPSSLSTSVGDRVTITCRASQSIRSHLNWYQQKPGKAPKLLIYGASNLQSGVPSRFSGSGSGTDFTLTISSLQPEDFATYYCQQSYSFPLTFGGGTKLEIK
modifications: WapR-004 VH; WapR-004 & WarR-004RAD VL
Turning to B1, the “OPK activity (concentration dependent killing)” value in experiment [1] is “superior OPK activity”. Besides, in experiment [2], the OPK activity entry is recorded as “OPK activity extends to strain 9882-80”. Moreover, the “inhibition of association of PAO1.lux to A549 cells” value in experiment [3] is recorded as “most active at inhibiting P. aeruginosa cell attachment to A549 lung epithelial cells”. In experiment [4], the “dissemination to the spleen and kidneys” value was “effective at reducing P. aeruginosa dissemination to the spleen and kidneys”; the organ burden entry is “reduced organ burden”.
